Experimental data published in IntAct's records for PubMed 17431395.

Target: T1, goga2_human GOLGA2 (UniProt Q08379)
T1 sequence: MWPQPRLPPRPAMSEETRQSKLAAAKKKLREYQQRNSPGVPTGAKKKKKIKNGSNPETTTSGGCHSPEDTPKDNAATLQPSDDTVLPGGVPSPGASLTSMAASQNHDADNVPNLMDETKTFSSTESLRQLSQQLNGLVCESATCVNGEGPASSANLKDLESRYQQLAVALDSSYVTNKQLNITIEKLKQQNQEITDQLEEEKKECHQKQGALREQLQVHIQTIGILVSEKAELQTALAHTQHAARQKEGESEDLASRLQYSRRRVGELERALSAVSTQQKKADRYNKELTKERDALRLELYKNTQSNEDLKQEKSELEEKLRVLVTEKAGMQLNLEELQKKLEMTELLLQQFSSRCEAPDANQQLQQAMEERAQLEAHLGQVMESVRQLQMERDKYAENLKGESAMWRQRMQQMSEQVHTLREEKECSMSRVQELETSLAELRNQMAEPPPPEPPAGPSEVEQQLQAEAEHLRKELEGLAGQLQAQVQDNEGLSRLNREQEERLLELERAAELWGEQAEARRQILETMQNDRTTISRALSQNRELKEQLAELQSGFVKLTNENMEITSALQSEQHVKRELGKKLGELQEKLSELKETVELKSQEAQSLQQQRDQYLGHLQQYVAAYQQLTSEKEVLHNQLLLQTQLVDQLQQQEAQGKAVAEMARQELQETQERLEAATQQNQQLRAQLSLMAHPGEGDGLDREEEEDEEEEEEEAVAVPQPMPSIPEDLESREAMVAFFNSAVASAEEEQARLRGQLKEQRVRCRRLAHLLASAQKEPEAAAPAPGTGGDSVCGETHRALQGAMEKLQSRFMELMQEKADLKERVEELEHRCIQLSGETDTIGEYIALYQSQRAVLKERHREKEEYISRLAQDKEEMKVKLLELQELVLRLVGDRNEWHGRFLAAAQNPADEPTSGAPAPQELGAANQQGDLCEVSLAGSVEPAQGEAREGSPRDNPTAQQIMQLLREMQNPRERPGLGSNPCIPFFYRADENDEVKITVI

For “Transthyretin (Homo sapiens) (from UniProt P02766) D38E”, the “effect of a mutation on the interaction” value was “disrupting interaction”.
